Where “and” joins values, the source holds several entries; their conditions need not be identical. Equal entries are not always repeated.
Legend:
[1] = target: wild type pXqua MltBP-QUA1 fusion protein (Xenopus laevis); assay: SEC; analytical Superdex-200 PC 3.2/30 of MltBP-QUA1 fusion proteins; 20 mM Tris-HCl pH 7.9, 150 mM NaCl, 0.05% sodium azide; 50 uL at 1 mg/mL loaded; apparent aggregation numbers from calibration; monomer to dimer
[2] = target: pXqua MltBP-QUA1-C59S/R67A/E72G fusion protein (Xenopus laevis); assay: as above
[3] = target: pXqua MltBP-QUA1-C59S fusion protein (Xenopus laevis); assay: as above
[4] = target: pXqua QUA1-C59S (protease-liberated peptide) (Xenopus laevis); assay: AUC; sedimentation equilibrium of released QUA1-C59S, global single species fits; monomer to dimer
[5] = target: pXqua MltBP-QUA1-C59S/R67E/E72R fusion protein (Xenopus laevis); assay: SEC; analytical Superdex-200 PC 3.2/30 of MltBP-QUA1 fusion proteins; 20 mM Tris-HCl pH 7.9, 150 mM NaCl, 0.05% sodium azide; 50 uL at 1 mg/mL loaded; apparent aggregation numbers from calibration; monomer to dimer
[6] = target: pXqua MltBP-QUA1-C59S/R67A fusion protein (Xenopus laevis); assay: as above

In the case of “wild type pXqua MltBP-QUA1 fusion protein (domain or fragment)”, the stoichiometry N [1] is reported as 4 and 2.

“pXqua MltBP-QUA1-C59S/R67A/E72G fusion protein (domain or fragment)” gave a fraction eluting in the dimer peak [2] of 0.33.

“pXqua MltBP-QUA1-C59S fusion protein (domain or fragment)” showed an AAN (apparent aggregation number) [3] of 2.7 and a stoichiometry N [3] of 2.

“pXqua QUA1-C59S (protease-liberated peptide) (domain or fragment)” was tested, and the stoichiometry N [4] was 2.

Work on “pXqua MltBP-QUA1-C59S/R67E/E72R fusion protein (domain or fragment)” yielded an AAN (apparent aggregation number) [5] of 2.1 and a percent of species in the dimeric state [5] of 70%.

In the case of “pXqua MltBP-QUA1-C59S/R67A fusion protein (domain or fragment)”, the AAN (apparent aggregation number) [6] is reported as 1.7 and the percent of species in the dimeric state [6] is reported as 40%.
